Biological target: T1, estrogen receptor α (ERα) (Homo sapiens, UniProt P03372)
T1 construct: The full length estrogen receptor was subcloned in frame into the EcoRI and XhoI sites of pJG4-5; expressed in transfected cells; host or cells: Saccharomyces cerevisiae EGY48
T1 sequence (P03372 1-595): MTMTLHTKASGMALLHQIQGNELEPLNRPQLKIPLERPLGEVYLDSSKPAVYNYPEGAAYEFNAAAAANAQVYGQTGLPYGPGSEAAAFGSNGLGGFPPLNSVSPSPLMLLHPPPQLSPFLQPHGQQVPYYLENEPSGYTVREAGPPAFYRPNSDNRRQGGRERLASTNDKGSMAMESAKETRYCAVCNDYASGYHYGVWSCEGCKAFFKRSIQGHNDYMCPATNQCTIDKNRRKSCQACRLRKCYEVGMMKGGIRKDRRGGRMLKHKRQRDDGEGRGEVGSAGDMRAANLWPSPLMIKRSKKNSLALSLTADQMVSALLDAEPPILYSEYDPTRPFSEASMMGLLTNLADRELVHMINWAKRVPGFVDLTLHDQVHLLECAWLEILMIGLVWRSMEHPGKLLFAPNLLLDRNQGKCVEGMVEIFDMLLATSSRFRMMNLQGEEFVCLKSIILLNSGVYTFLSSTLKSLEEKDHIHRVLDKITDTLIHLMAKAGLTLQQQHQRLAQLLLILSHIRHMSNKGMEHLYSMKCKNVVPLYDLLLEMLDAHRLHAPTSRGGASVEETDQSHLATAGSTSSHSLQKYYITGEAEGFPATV
Assay: LexA yeast two hybrid, β-galactosidase activity assay (Example 3)
Format: cell-based
Description: The LexA system that we employ utilizes a bacterial DNA binding protein domain, LexA, and a bacterially derived transcriptional activation sequence, B42. Proteins or peptides of interest are fused in frame with these domains and expressed using episomal plasmids in a yeast cell. The interactions between these proteins/peptides of interest are registered by monitoring the level of the reporter gene product, β-galactosidase, by an enzymatic assay. The differences in the levels of β-galactosidase activities reflect the relative strengths of the protein interactions.
The yeast strains used in this study was EGY48 (MAT a trp1 his3 ura3 leu2::61exAops-LEU2) purchased from OriGeneTechnologies for yeast two hybrid analysis. This strain contains 6 LexA operators upstream of the LEU2 gene in the yeast genome and provides high sensitivity in detecting protein-protein interactions in the LexA two hybrid system. The plasmids used in this study were pEG202 (LexA-DNA binding domain), pJG4-5 (B42-activation domain), and the plasmid containing a β-galactosidase reporter, pJK103 (OriGene Technologies). The full length estrogen receptor was subcloned in frame into the EcoRI and XhoI sites of pJG4-5 to generate an ERα-B42 activation domain fusion. ERα was subcloned in the activation domain plasmid because ERα was able to autoactivate reporters when fused to the LexA DNA binding domain.
The peptide sequences used in this study were generated from synthetic oligos filled in by T7 Sequenase (Life Science) and subcloned into the EcoRI-XhoI sites of pEG202. The synthetic oligos were: [formula] [formula] [formula] [formula] The complementary synthetic oligo used to generate double stranded DNA was 3'XhoPrim, 5'-[…]. Each 5'-oligo was annealed to the 3'-oligo by heating to 90 °C for 15 minutes and cooled slowly to 35 °C. T7 sequenase was added and the fill-in reaction allowed to proceed at 30 °C for 30 minutes. The reaction was terminated by heat denaturing the enzyme at 65 °C for 1 hour, restriction digests were performed and the resulting DNA fragments subcloned into pEG202 to generate peptide-LexA DNA binding domain fusions.
The culture was diluted to ~2x10^6 cells/ml in the same media and allowed to grow at 30 °C until the cultures reached a density of ~1x10^7 cells/ml (∼4 hours). The yeast cells were pelleted by centurifugation, washed with extraction buffer (60 mM Na2HPO4, 40 mMNaH2PO4, 10 mM KCl, 1 mM MgSO4, 1mM PMSF, 7 mM 2-mercaptoethanol) and suspended in 200 µl of extraction buffer. 100 µl of acid-washed glass beads were added and cells were lysed by vigorous agitation for 10 minutes at 4 °C. Cellular debris was pelleted by centrifugation and the supernatant transferred to a clean tube. 10 µg of total cellular protein was diluted into complete Z buffer (60 mM Na2HPO4, 40 mMNaH2PO4 , 10 mM KCl, 1 mM MgSO4, 7 mM 2-mercaptoethanol) to a volume of 100 µl in a 96-well microplate. 80 µg of o-nitrophenyl-β-D-pyranoside (ONPG) in 20 µl was added to each well to initiate color development.
10µg of each protein extract was assayed for β-galactosidase activity using o-nitrophenyl-b-D-pyranoside as substrate. Activity units are defied as 1000* Abs405/minutes/mg/protein.
Values are in beta-galactosidase units (MOD/min/mg)

| Sequence | Peptide Interactions with ER Alpha, beta-galactosidase units, value (4-hydroxy Tamoxifen) | Peptide Interactions with ER Alpha, beta-galactosidase units, value (Estradiol) | Peptide Interactions with ER Alpha, beta-galactosidase units, value (No Addition) | Peptide Interactions with ER Alpha, beta-galactosidase units, value (Tamoxifen Citrate) |
| --- | --- | --- | --- | --- |
| SSLTSRDFGSWYASR [α II] | 20100 MOD/min/mg | 30983 MOD/min/mg | 1224 MOD/min/mg | 8933 MOD/min/mg |
| SSPGSREWFKDMLSR [α/β V] | 4128 MOD/min/mg | 648 MOD/min/mg | 548 MOD/min/mg | 1005 MOD/min/mg |
| SSWDMHQFFWEGVSR [α/β III] | 3194 MOD/min/mg | 605 MOD/min/mg | 381 MOD/min/mg | 600 MOD/min/mg |

— patent publication EP1073891B1, “METHOD OF PREDICTING RECEPTOR MODULATING ACTIVITY” (Duke University, priority 1998, dated 1999)
